Source: paper PMC4159138, “Fission Yeast Pxd1 Promotes Proper DNA Repair by Activating Rad16^XPF and Inhibiting Dna2” (PLoS Biology, 2014)

Columns and labels:
Dna2;Cdc24-YFH = Dna2;Cdc24-YFH (Schizosaccharomyces …, UniProt Q9URU2;O75004 1-1397;1-501, |); assay: EMSA; 1 mM EDTA, no divalent cations; 100-300 ng Dna2-Cdc24; 50 mM Tris-HCl pH 7.5, 1 mM EDTA, 1 mM DTT, 0.1 mg/ml BSA, 50 mM NaCl, 5% glycerol, 15 fmol DNA in 10 µl, room temperature 30 min; 5% PAGE in 1x TBE; details: protein: native;native; tags: none stated (co-expressed with Cdc24-YFH);YFP-FLAG-His6; copies: 1;1; label: 5' 32P on oligo461; 18 bp duplex with 5' overhang 31 nt on oligo461
Dna2;Cdc24-YFH;RPA = Dna2;Cdc24-YFH;RPA (Schizosaccharomyces …, UniProt Q9URU2;O75004;Q92372;Q92373;Q92374 1-1397;1-501;1-609;1-279;1-104, ||); assay: EMSA; 1 mM EDTA; supershifted higher-order complex, no Pxd1; 50 mM Tris-HCl pH 7.5, 1 mM EDTA, 1 mM DTT, 0.1 mg/ml BSA, 50 mM NaCl, 5% glycerol, 15 fmol DNA in 10 µl, room temperature 30 min; 5% PAGE in 1x TBE; details: protein: native;native;recombinant; tags: none stated (co-expressed with Cdc24-YFH);YFP-FLAG-His6;6xHis-GST on Rpa1 in plasmid pDB2129; copies: 1;1;1;1;1; label: 5' 32P on oligo461; 18 bp duplex with 5' overhang 31 nt on oligo461

Chain of Dna2;Cdc24-YFH (Q9URU2 whole entry, chain 1 of 2): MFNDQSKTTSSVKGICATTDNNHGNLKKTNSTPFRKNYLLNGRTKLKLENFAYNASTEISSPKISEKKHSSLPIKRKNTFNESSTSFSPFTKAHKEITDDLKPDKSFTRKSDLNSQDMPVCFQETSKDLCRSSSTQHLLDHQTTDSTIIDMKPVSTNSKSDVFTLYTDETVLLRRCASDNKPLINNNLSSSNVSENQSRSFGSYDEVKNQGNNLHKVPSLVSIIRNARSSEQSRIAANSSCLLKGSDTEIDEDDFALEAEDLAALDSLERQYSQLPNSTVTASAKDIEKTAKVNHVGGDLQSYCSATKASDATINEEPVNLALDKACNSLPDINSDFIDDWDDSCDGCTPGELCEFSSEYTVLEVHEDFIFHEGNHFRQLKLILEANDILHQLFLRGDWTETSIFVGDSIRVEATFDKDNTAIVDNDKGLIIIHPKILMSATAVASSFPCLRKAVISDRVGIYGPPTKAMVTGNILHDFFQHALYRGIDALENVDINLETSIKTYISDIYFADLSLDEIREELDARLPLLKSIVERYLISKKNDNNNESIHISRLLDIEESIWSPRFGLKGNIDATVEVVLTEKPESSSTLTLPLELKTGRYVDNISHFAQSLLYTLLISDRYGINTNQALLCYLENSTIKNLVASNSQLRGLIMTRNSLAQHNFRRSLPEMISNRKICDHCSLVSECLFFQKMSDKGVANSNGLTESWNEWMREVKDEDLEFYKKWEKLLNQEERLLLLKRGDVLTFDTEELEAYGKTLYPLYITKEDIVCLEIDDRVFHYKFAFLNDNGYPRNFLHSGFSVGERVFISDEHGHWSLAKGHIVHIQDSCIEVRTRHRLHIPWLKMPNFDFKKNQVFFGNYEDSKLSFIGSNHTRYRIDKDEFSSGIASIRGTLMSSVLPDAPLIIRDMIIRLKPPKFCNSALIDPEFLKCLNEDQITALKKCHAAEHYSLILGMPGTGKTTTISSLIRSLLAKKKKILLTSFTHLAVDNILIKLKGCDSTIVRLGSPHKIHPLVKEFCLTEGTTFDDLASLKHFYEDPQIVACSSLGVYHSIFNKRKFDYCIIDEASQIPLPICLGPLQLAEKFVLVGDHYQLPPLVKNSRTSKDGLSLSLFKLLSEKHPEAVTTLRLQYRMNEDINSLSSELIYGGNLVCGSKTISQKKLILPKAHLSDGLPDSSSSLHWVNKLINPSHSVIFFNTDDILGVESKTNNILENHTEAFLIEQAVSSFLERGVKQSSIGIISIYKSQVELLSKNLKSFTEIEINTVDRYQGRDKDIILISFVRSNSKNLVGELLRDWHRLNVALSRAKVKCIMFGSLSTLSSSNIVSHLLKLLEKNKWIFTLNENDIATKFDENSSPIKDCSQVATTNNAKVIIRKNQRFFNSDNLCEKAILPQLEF
Chain of Dna2;Cdc24-YFH (O75004 whole entry, chain 2 of 2): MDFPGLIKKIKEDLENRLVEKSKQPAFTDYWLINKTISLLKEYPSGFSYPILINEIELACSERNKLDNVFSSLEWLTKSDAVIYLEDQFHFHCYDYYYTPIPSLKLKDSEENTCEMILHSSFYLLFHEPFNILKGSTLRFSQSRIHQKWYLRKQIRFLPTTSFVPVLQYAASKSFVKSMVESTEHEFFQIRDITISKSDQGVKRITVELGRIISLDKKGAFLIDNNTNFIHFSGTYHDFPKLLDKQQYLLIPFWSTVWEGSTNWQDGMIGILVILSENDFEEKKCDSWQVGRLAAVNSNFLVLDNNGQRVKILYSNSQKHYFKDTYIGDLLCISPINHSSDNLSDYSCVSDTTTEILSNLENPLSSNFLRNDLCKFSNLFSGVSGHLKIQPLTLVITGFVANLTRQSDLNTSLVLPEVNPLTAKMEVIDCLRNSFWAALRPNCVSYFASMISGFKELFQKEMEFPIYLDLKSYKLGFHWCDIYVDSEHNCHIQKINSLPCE

B1: 5' overhang DNA (oligo461/oligo463) (dsDNA)
DNA 1: CACGCTACCGAATTCTGACTTGCTAGGACATCTTTGCCCACGTTGACCC
DNA 2: GGGTCAACGTGGGCAAAG
binding result (Dna2;Cdc24-YFH): binds
binding result (Dna2;Cdc24-YFH;RPA): binds
